Measurements reported in PMC10407929, “Determining DNA–Protein Binding Affinities and Specificities from Crude Lysates Using a Combined SILAC/TMT Labeling Strategy”.
Values joined by “and” are separate entries in the source; they are usually repeats but may differ in a detail not shown here. Identical values can stand only once.

Legend:
Assay in all cases: pulldown; 150 mM NaCl, 50 mM Tris pH 8.0, 0.25% NP-40, 1 mM DTT; 4 C, 2 h; 100 ug nuclear extract
Conditions in all cases: protein: extract; label: 5' biotin (strand 1)
[1] = target: KLF12 (Homo sapiens, UniProt Q9Y4X4)
[2] = target: T1, MAZ (Homo sapiens, UniProt P56270)
T1 sequence: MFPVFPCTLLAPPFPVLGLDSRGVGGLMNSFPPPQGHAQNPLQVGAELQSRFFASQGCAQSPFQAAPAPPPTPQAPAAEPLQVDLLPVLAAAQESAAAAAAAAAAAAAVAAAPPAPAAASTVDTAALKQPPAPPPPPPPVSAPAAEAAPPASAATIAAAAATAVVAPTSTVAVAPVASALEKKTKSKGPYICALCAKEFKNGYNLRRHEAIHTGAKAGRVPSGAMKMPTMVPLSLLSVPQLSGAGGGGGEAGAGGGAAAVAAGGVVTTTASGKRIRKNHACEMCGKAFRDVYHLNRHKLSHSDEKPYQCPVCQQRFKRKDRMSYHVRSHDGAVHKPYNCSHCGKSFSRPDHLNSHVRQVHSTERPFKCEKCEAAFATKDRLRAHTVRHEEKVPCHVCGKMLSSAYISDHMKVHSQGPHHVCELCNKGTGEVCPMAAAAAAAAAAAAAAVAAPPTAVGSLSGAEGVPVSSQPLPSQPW

[3] = target: T2, BEND3 (Homo sapiens, UniProt Q5T5X7)
T2 sequence: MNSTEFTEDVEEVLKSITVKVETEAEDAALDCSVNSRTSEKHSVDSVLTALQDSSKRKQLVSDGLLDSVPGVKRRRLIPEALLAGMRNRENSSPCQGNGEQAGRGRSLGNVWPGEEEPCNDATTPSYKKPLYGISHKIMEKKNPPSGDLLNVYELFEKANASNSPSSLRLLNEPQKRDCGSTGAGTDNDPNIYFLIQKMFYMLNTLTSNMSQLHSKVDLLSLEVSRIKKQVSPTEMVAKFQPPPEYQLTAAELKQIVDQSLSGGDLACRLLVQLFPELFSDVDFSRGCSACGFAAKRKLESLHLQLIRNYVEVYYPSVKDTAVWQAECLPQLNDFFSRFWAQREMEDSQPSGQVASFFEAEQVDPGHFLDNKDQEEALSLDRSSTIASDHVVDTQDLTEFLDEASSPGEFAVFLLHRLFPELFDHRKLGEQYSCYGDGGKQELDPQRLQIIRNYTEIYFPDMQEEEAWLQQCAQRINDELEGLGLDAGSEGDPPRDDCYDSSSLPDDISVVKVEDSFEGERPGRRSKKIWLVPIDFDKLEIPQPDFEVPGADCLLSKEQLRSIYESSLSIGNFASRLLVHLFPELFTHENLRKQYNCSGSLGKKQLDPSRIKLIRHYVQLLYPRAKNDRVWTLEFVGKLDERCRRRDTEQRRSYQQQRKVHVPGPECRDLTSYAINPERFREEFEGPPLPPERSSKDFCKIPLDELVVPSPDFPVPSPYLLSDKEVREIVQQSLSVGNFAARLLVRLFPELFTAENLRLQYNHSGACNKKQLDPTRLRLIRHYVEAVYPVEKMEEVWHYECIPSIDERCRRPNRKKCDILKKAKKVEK

[4] = target: KLF5 (Homo sapiens, UniProt Q13887)
[5] = target: T3, VEZF1 (Homo sapiens, UniProt Q14119)
T3 sequence: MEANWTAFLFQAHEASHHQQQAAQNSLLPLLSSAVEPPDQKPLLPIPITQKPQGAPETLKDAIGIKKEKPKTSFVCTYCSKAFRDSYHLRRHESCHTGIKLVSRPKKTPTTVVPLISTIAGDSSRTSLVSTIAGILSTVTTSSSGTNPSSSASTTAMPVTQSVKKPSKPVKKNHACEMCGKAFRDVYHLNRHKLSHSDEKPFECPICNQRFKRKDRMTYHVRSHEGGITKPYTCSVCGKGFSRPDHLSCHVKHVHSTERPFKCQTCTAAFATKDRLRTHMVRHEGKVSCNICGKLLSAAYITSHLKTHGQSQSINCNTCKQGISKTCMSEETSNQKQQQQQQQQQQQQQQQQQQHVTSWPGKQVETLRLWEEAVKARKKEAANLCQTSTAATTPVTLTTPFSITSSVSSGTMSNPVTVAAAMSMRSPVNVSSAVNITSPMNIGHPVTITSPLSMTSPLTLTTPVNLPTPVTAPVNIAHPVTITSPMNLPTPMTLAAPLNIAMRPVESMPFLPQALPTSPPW

[6] = target: SP1 (Homo sapiens, UniProt P08047)
[7] = target: KLF1 (Homo sapiens, UniProt Q13351)
[8] = target: T4, BANP (Homo sapiens, UniProt Q8N9N5)
T4 sequence: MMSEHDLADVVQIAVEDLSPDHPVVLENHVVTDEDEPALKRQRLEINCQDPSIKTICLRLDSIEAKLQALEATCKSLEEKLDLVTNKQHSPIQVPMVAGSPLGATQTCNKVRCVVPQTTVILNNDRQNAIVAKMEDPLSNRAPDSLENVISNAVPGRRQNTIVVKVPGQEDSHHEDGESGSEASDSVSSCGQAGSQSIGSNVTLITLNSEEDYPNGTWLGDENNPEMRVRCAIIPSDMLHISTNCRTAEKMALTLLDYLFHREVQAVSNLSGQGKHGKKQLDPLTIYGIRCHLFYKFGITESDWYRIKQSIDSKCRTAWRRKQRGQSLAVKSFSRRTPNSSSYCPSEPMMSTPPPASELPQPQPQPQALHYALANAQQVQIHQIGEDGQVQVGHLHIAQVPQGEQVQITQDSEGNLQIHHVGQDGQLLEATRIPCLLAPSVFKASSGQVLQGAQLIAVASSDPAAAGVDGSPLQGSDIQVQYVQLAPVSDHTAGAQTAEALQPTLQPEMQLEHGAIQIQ

[9] = target: HOXB9 (Homo sapiens, UniProt P17482)
[10] = target: T5, MAZ (Homo sapiens, UniProt P56270); remark: listed apart in the source
T5 sequence: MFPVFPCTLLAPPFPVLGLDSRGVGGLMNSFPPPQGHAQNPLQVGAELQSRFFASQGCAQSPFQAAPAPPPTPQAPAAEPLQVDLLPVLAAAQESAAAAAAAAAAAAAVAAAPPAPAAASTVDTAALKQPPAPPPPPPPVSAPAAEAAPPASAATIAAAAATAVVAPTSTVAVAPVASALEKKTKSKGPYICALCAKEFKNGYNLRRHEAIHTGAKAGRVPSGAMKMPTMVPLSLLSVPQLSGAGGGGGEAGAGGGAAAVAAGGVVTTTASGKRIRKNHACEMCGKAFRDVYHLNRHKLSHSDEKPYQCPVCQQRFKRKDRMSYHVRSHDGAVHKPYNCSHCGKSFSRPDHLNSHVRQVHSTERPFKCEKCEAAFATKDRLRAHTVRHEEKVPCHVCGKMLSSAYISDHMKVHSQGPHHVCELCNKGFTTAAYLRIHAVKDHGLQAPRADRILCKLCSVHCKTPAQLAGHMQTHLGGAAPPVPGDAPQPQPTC

[11] = target: SP3 (Homo sapiens, UniProt Q02447)
[12] = target: TFAP2A (Homo sapiens, UniProt P05549)
[13] = target: T6, ZNF148 (Homo sapiens, UniProt Q9UQR1)
T6 sequence: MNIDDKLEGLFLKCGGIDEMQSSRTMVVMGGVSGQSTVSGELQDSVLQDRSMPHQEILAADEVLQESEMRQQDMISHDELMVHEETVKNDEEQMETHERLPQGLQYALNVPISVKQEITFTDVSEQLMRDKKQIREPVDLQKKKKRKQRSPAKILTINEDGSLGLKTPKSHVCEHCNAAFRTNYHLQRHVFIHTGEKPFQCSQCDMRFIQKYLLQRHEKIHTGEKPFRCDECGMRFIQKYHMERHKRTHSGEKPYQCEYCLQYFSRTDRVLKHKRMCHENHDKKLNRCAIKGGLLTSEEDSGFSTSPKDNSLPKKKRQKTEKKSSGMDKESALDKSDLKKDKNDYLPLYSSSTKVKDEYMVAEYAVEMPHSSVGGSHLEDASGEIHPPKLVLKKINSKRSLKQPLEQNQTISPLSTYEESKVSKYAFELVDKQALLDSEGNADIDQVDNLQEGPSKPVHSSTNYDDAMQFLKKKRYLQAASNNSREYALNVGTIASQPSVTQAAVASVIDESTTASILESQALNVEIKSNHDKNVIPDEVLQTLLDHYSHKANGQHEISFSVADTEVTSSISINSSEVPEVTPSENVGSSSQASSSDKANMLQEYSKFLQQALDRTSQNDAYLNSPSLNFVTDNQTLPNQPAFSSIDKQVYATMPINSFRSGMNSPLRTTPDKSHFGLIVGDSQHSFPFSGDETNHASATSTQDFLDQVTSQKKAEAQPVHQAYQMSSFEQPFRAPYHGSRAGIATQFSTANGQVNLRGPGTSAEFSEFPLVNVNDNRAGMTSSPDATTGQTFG

SP1, sequence (P08047 whole entry): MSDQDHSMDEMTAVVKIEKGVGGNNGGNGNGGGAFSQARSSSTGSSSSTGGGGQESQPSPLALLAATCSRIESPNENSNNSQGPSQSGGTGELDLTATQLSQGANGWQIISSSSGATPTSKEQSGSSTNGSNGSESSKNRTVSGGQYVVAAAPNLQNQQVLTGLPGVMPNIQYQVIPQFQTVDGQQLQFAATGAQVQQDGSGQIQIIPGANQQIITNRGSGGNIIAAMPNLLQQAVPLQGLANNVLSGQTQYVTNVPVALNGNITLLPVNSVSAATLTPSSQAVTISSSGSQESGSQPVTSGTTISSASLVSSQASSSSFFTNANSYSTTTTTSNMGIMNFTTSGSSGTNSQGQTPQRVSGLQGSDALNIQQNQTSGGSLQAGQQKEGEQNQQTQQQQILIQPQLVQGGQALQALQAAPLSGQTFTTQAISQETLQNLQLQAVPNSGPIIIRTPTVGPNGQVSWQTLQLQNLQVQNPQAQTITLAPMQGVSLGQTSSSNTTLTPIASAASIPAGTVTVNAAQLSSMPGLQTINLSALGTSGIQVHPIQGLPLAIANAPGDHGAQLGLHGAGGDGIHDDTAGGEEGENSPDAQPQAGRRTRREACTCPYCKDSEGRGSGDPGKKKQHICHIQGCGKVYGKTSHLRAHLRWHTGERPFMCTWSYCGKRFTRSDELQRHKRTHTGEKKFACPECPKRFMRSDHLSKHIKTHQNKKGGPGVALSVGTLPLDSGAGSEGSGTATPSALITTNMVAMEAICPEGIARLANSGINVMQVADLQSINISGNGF
KLF12, sequence (Q9Y4X4 whole entry): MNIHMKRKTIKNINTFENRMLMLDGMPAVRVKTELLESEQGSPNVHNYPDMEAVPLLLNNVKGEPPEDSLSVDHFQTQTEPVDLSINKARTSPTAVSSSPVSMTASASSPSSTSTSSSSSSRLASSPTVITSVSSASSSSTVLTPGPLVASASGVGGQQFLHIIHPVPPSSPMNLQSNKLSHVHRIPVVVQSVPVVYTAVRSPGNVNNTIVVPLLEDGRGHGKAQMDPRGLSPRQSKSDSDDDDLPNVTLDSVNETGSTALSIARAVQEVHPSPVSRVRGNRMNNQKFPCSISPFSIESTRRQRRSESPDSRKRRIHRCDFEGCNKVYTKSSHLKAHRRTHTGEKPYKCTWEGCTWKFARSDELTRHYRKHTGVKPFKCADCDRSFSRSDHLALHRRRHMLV
HOXB9, sequence (P17482 whole entry): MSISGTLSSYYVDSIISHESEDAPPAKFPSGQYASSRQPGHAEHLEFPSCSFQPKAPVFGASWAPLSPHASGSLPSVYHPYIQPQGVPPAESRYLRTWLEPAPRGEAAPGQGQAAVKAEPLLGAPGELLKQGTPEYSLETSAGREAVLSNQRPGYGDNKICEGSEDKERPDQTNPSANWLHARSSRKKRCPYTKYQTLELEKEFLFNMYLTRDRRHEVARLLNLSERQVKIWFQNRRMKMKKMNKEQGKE
SP3, sequence (Q02447 whole entry): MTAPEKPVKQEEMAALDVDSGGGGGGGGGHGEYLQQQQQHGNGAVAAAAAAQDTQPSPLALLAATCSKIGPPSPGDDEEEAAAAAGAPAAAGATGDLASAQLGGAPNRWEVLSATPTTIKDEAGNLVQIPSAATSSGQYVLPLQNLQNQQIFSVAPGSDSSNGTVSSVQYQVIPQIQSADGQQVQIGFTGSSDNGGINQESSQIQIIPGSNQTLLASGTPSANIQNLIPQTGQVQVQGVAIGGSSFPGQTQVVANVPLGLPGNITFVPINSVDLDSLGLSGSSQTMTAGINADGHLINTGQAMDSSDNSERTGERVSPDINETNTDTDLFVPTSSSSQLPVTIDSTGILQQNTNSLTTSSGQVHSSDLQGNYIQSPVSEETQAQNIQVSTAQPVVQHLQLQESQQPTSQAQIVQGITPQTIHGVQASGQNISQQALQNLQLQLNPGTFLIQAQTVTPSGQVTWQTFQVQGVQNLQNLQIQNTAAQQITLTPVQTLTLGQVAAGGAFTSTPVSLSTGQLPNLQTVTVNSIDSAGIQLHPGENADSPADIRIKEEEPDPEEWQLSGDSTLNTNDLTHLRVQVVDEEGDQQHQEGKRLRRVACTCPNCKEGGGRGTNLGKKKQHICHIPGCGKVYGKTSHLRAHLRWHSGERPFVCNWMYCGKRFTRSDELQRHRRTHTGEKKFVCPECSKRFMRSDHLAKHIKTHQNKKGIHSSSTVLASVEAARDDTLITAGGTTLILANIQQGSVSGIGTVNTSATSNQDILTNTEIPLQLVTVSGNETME
KLF1, sequence (Q13351 whole entry): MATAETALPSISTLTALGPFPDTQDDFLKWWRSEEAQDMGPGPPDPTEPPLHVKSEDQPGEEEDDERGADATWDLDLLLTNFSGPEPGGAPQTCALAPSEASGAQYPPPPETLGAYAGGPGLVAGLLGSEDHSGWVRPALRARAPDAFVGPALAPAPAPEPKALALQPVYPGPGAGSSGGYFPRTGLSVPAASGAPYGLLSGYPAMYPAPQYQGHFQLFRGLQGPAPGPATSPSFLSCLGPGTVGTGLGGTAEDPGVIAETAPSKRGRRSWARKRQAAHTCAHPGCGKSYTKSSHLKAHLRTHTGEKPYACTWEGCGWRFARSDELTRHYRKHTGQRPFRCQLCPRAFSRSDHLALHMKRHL
KLF5, sequence (Q13887 whole entry): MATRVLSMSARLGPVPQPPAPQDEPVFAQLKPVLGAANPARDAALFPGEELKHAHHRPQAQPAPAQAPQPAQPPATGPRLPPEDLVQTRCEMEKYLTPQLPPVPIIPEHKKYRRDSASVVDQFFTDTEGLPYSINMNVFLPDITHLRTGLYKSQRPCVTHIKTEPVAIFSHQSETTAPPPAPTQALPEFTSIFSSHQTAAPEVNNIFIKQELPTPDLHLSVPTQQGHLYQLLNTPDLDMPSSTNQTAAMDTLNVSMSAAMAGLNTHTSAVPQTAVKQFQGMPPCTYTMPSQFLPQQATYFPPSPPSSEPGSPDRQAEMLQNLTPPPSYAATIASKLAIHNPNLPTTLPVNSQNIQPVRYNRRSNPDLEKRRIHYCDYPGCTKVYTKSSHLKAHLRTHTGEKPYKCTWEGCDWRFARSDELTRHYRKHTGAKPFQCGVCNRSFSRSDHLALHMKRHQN
TFAP2A, sequence (P05549 whole entry): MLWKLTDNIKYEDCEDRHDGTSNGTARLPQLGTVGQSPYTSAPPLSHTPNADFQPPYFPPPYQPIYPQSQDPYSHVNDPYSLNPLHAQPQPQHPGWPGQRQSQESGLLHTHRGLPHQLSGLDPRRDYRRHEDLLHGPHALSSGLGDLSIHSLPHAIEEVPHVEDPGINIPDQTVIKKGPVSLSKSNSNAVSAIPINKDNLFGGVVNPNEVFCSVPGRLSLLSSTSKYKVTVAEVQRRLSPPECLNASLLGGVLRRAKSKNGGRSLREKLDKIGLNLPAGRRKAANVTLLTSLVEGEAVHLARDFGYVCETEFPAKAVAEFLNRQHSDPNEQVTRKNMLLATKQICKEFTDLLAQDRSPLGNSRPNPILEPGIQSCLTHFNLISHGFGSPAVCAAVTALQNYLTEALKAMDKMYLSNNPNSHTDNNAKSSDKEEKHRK

B1: BEND3 bait (dsDNA)
DNA 1: GCCGCCGCCCTCCCACGCGCTGCCGGGCC
DNA 2: GGCCCGGCAGCGCGTGGGAGGGCGGCGGC
In the case of B1, the “apparent K (half saturation)” value [1] is reported as 346 nM, the “apparent K (half saturation)” value [2] is reported as 56.4 nM and the “apparent K (half saturation)” value [3] is reported as 166 nM. For the same binder, the “apparent K (half saturation)” value [4] was 227 nM, the “apparent K (half saturation)” value [5] was 110 nM and the “apparent K (half saturation)” value [6] was 289 nM.

B2: CGCG bait (dsDNA)
DNA 1: GCCGCCGCCCTTCTCGCGAGACTGCCGGGCC
DNA 2: GGCCCGGCAGTCTCGCGAGAAGGGCGGCGGC
For B2, the “apparent K (half saturation)” value [7] was 83 nM, the “apparent K (half saturation)” value [2] was 203 nM and the “apparent K (half saturation)” value [8] was 6.9 nM and 11.3 nM. The “apparent K (half saturation)” value [9] was 323 nM, the “apparent K (half saturation)” value [10] was 153 nM and the “apparent K (half saturation)” value [5] was 333 nM.

B3: SP/KLF negative control bait (dsDNA)
DNA 1: GAGAGAAAATAAAACTGGCT
DNA 2: AGCCAGTTTTATTTTCTCTC
In the case of B3, the “apparent K (half saturation)” value [5] is reported as greater than 1180 nM.

B4: SP/KLF bait (dsDNA)
DNA 1: GAGAGCCCCGCCCCCTGGCT
DNA 2: AGCCAGGGGGCGGGGCTCTC
With B4 the “apparent K (half saturation)” value [11] was 6.26 nM, the “apparent K (half saturation)” value [12] was 162 nM and the “apparent K (half saturation)” value [5] was 90.4 nM. The “apparent K (half saturation)” value [13] was 54.2 nM and the “apparent K (half saturation)” value [6] was 13.8 nM.
